Starred links: 1 amine or outer side, 2 acyl side, 3 side chain; linkers in the order of their positions; H or OH if unused. Positions of bridges follow the written chain, without caps; N, C: chain ends. Non-standard residues stand in square brackets, D forms with d. Groups on a side chain read outwards from the residue. Primed or numbered codes have the meaning given here. No end group written: not given here. *: point of attachment. Pra′ = propargylglycine (built in as LPH), clicked to a 1-substituted triazol-4-yl-alanine, O=C([C@H](Cc1cn([*:3])nn1)N[*:1])[*:2]; X1 = (S)‑3‑carboxy‑3‑(15-carboxypentadecanoylamino)propyl, O=C(O)CCCCCCCCCCCCCCC(=O)N[C@@H](CC*)C(=O)O; Phe(4-OMe) = p-methoxyphenylalanine (O-methyl-L-tyrosine), COc1ccc(C[C@H](N[*:1])C(=O)[*:2])cc1; Pra″ = its azide, alkyne or alkene has reacted where a group follows in round brackets; Pra(4) = propargylglycine, clicked with an azide to give a triazolylalanine residue; X2 = (S)‑3‑carboxy‑3‑palmitamidopropyl, CCCCCCCCCCCCCCCC(=O)N[C@@H](CC*)C(=O)O; Pra(3) = propargylglycine, clicked to an azide to give a triazolyl-alanine; triazole = 1,2,3-triazole formed by click of the Pra alkyne with the azide; Trp(1-CH2CO) = O=C([C@H](Cc1cn(CC(=O)[*:3])c2ccccc12)N[*:1])[*:2]; Phe(3,4,5-F3) = N[C@@H](Cc1cc(F)c(F)c(F)c1)C(=O)O; C18 diacid = O=C(O)CCCCCCCCCCCCCCCCC(=O)*; C16 diacid = O=C(O)CCCCCCCCCCCCCCC(=O)*; γGlu = O=C(O)[C@H](CCC(=O)[*:2])N[*:1]; Aha = [N-]=[N+]=NCC[C@H](N)C(=O)O; Hyp = O=C(O)[C@@H]1C[C@@H](O)CN1; NMeF = CN[C@@H](Cc1ccccc1)C(=O)O; dHyp = O=C(O)[C@H]1C[C@H](O)CN1; NMeNle = CCCC[C@H](NC)C(=O)O; triazole″ = not defined here; Bzt = benzothienylalanine; Pip = O=C(O)[C@@H]1CCCCN1; NMeA = CN[C@@H](C)C(=O)O; Orn = NCCC[C@H](N)C(=O)O; PEG7′ = not defined here; Pra = C#CC[C@H](N)C(=O)O; Dab = NCC[C@H](N)C(=O)O; Dap = NC[C@H](N)C(=O)O

B1: INT-130AF (peptide)
peptide: {CH2CO}-Y[NMeA]NP[Dap]L[Hyp]W[Dab][Trp(1-CH2CO)][NMeNle][NMeNle]LC[Pra]-OH
modifications: thioether N-14
SMILES: C#CC[C@H](NC(=O)[C@@H]1CSCC(=O)N[C@@H](Cc2ccc(O)cc2)C(=O)N(C)[C@@H](C)C(=O)N[C@@H](CC(N)=O)C(=O)N2CCC[C@H]2C(=O)N[C@@H](CN)C(=O)N[C@@H](CC(C)C)C(=O)N2C[C@H](O)C[C@H]2C(=O)N[C@@H](Cc2c[nH]c3ccccc23)C(=O)N[C@@H](CCN)C(=O)N[C@@H](Cc2cn(CC(=O)O)c3ccccc23)C(=O)N(C)[C@@H](CCCC)C(=O)N(C)[C@@H](CCCC)C(=O)N[C@@H](CC(C)C)C(=O)N1)C(=O)O
B2: INT-1300B (peptide)
peptide: {CH2CO}-Y[NMeA]NP[Dap]L[Hyp]WS[Bzt][NMeNle][NMeNle]RCG[Aha]
modifications: thioether N-14
B3: INT-130AH (peptide)
peptide: {CH2CO}-Y[NMeA]NP[Dap]L[Hyp]W[Dab][Trp(1-CH2CO)][NMeNle][NMeNle]DC[Pra]-OH
modifications: thioether N-14 (inferred)
B4: INT-130AL (peptide)
peptide: {CH2CO}-Y[Pip]NP[DapMe]L[Hyp]W[Dab][Trp(1-CH2CO)][NMeNle][NMeNle]ECG[Pra]
modifications: thioether N-14 (inferred)
B5: INT-1300A (peptide)
peptide: {CH2CO}-Y[NMeA]NP[Dap]L[Hyp]WS[Bzt][NMeNle][NMeNle]RCG[Pra]
modifications: thioether N-14
B6: INT-130AK (peptide)
peptide: {CH2CO}-Y[Pip]NP[DapMe]L[Hyp]W[Dab][Trp(1-CH2CO)][NMeNle][NMeNle]LCG[Pra]
modifications: thioether N-14 (inferred)
B7: INT-130AG (peptide)
peptide: {CH2CO}-Y[NMeA]NP[Dap]L[Hyp]W[Dab][Trp(1-CH2CO)][NMeNle][NMeNle]EC[Pra]-OH
modifications: thioether N-14
SMILES: C#CC[C@H](NC(=O)[C@@H]1CSCC(=O)N[C@@H](Cc2ccc(O)cc2)C(=O)N(C)[C@@H](C)C(=O)N[C@@H](CC(N)=O)C(=O)N2CCC[C@H]2C(=O)N[C@@H](CN)C(=O)N[C@@H](CC(C)C)C(=O)N2C[C@H](O)C[C@H]2C(=O)N[C@@H](Cc2c[nH]c3ccccc23)C(=O)N[C@@H](CCN)C(=O)N[C@@H](Cc2cn(CC(=O)O)c3ccccc23)C(=O)N(C)[C@@H](CCCC)C(=O)N(C)[C@@H](CCCC)C(=O)N[C@@H](CCC(=O)O)C(=O)N1)C(=O)O
B8: INT-130AI (peptide)
peptide: {CH2CO}-Y[Pip]NP[Dap]L[Hyp]W[Dab][Trp(1-CH2CO)][NMeNle][NMeNle]LCG[Pra]
modifications: thioether N-14 (inferred)
B9: Example 13152 (peptide)
peptide: {CH2CO}-Y[Pip]NP[Dap]L[Hyp]W[Dab][Trp(1-CH2CO)][NMeNle][NMeNle]LCG[Dap]([γGlu-C18 diacid])
modifications: thioether N-14 (inferred)
B10: Example 13153 (peptide)
peptide: {CH2CO}-Y[NMeA]NP[Dap]L[Hyp]W[Dab][Trp(1-CH2CO)][NMeNle][NMeNle]LCG[Dap]([γGlu-C18 diacid])
modifications: thioether N-14 (inferred)
B11: Example 13154 (peptide)
peptide: {CH2CO}-[Phe(4-OMe)][Pip]NPHQ[Hyp]W[Dab][Trp(1-CH2CO)][NMeNle][NMeNle]LCG[Dap]([γGlu-C18 diacid])
modifications: thioether N-14
B12: INT-130AJ (peptide)
peptide: {CH2CO}-Y[Pip]NP[Dap]L[Hyp]W[Dab][Trp(1-CH2CO)][NMeNle][NMeNle]ECG[Pra]
modifications: thioether N-14 (inferred)
B13: Example 14123 (peptide)
peptide: FXDPXLPWXWXXLCGE
modifications: ClAc-Tyr(4-F)-Pip-Asp-Pro-Dap-Leu-Hyp-Trp-Dab-Trp'-mNle-mNle-Leu-Cys-Gly-((S)-4-(Fmoc-amino)-5-(tert-butoxy)-5-oxopentanoic acid)-[Modified resin 14A], deprotected; Glu joined through its gamma-carboxyl; 14A = ethylenediamine amide of the gamma-carboxyl of Glu N-(17-carboxyheptadecanoyl); cyclised ClAc-Cys
B14: Example 13124 (peptide)
peptide: {CH2CO}-Y[NMeA]NP[Dap]L[Hyp]W[Dab][Trp(1-CH2CO)][NMeNle][NMeNle]LCGGG[Pra″]([triazole-PEG7′-γGlu-C18 diacid])
modifications: thioether N-14 (inferred)
B15: Example 14063 (peptide)
peptide: {CH2CO}-Y[NMeA]DPHK[Hyp]WKW[NMeNle][NMeNle]ECG[Pra(3)]([triazole″-2,5,8,11‑tetraoxatridecyl])G
modifications: thioether N-14; reading uncertain
B16: Example 14074 (peptide)
peptide: {CH2CO}-[Phe(3,4,5-F3)][NMeF][NMeNle][dHyp]DV[NMeF]D[dP]WYLCG[Pra′]([triazole-X1])
modifications: thioether N-13
B17: Example 14068 (peptide)
peptide: {CH2CO}-Y[NMeA]DPHQ[Hyp]WSW[NMeNle][NMeNle]ECG[Pra′]([triazole-X1])
modifications: thioether N-14
B18: Example 14062 (peptide)
peptide: {CH2CO}-Y[NMeA]DPHQ[Hyp]WSW[NMeNle][NMeNle]ECG[Pra(3)]([triazole″-X2])G
modifications: thioether N-14; reading uncertain
B19: Example 14075 (peptide)
peptide: {CH2CO}-Y[NMeA]DPHK[Hyp]WK[Trp(1-CH2CO)][NMeNle][NMeNle]ECG[Pra′]([triazole-X1])
modifications: thioether N-14
B20: Example 14083 (peptide)
peptide: {CH2CO}-Y[NMeA]NP[Dap]L[Hyp]WS[Trp(1-CH2CO)][NMeNle][NMeNle]LCG[Pra(4)]([triazole-Dab-C16 diacid])
modifications: thioether N-14
B21: Example 14069 (peptide)
peptide: {CH2CO}-Y[NMeA]DPHQ[Hyp]WSW[NMeNle][NMeNle]ECG[Pra′]([triazole-X1])G
modifications: thioether N-14
B22: Example 14073 (peptide)
peptide: {CH2CO}-[Phe(3,4,5-F3)][NMeF][NMeNle][dP]DV[NMeF][Orn][dP]WYLCG[Pra′]([triazole-X1])
modifications: thioether N-13
B23: Example 14079 (peptide)
peptide: {CH2CO}-Y[NMeA]DPHK[Hyp]WK[Trp(1-CH2CO)][NMeNle][NMeNle]ECG[Pra′]([triazole-X2])
modifications: thioether N-14
B24: Example 14080 (peptide)
peptide: {CH2CO}-Y[NMeA]NP[Dap]L[Hyp]WS[Trp(1-CH2CO)][NMeNle][NMeNle]LCG[Pra′]([triazole-X2])
modifications: thioether N-14
B25: INT-130AB (peptide)
peptide: {CH2CO}-Y[NMeA]NP[Dap]L[Hyp]W[Dab][Trp(1-CH2CO)][NMeNle][NMeNle]LCGGG[Pra]-OH
modifications: thioether N-14
SMILES: C#CC[C@H](NC(=O)CNC(=O)CNC(=O)CNC(=O)[C@@H]1CSCC(=O)N[C@@H](Cc2ccc(O)cc2)C(=O)N(C)[C@@H](C)C(=O)N[C@@H](CC(N)=O)C(=O)N2CCC[C@H]2C(=O)N[C@@H](CN)C(=O)N[C@@H](CC(C)C)C(=O)N2C[C@H](O)C[C@H]2C(=O)N[C@@H](Cc2c[nH]c3ccccc23)C(=O)N[C@@H](CCN)C(=O)N[C@@H](Cc2cn(CC(=O)O)c3ccccc23)C(=O)N(C)[C@@H](CCCC)C(=O)N(C)[C@@H](CCCC)C(=O)N[C@@H](CC(C)C)C(=O)N1)C(=O)O
notes: also called Intermediate 130AB

The target of the first experiment is T1, Recombinant Human PD-L1-TVMV-His (human, UniProt Q9NZQ7 19-239).
T1 construct: expressed in HEK293T cells; also called PD-L1-His; hPD-L1(19-239)-TVMV-His
T1 sequence (Q9NZQ7 other isoform, or with tags, fused parts or gaps limits assumed): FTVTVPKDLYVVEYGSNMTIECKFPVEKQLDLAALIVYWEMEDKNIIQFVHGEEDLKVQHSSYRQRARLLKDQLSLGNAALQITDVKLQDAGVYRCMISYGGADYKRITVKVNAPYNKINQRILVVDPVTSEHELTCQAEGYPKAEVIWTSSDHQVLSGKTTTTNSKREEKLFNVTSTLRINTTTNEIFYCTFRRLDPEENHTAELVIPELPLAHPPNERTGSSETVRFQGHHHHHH
As to the kind of experiment: HTRF vs PD-1-Ig; C = IC50 0.0003-0.0099 µM. As for the experimental part:
(§1) Homogenous Time-Resolved Fluorescence (HTRF) Assays of Binding of Soluble PD-1 to Soluble PD-L1. Soluble PD-1 and soluble PD-L1 refers to proteins with carboxyl-end truncations that remove the transmembrane-spanning regions and are fused to heterologous sequences, specifically the Fc portion of the human immunoglobuling G sequence (Ig) or the hexahistidine epitope tag (His). All binding studies were performed in an HTRF assay buffer consisting of dPBS supplemented with 0.1% (w/v) bovine serum albumin and 0.05% (v/v) Tween-20. For the PD-1-Ig/PD-L1-His binding assay, inhibitors were pre-incubated with PD-L1-His (10 nM final) for 15 m in 4 μl of assay buffer, followed by addition of PD-1-Ig (20 nM final) in 1 μl of assay buffer and further incubation for 15 m. PD-L1 fusion proteins from either human, cynomologous macaques, mouse, or other species were used. HTRF detection was achieved using europium crypate-labeled anti-Ig monoclonal antibody (1 nM final) and allophycocyanin (APC) labeled anti-His monoclonal antibody (20 nM final). Antibodies were diluted in HTRF detection buffer and 5 μl was dispensed on top of binding reaction. The reaction was allowed to equilibrate for 30 minutes and signal (665 nm/620 nm ratio) was obtained using an EnVision fluorometer. Additional binding assays were established between PD-I-Ig/PD-L2-His (20 and 5 nM, respectively), CD80-His/PD-L1-Ig (100 and 10 nM, respectively) and CD80-His/CTLA4-Ig (10 and 5 nM, respectively). Binding/competition studies between biotinylated Compound No. 71 and human PD-L1-His were performed as follows. Macrocyclic peptide inhibitors were pre-incubated with PD-L1-His (10 nM final) for 60 minutes in 4 μl of assay buffer followed by addition of biotinylated Compound No. 71 (0.5 nM final) in 1 μl of assay buffer. Binding was allowed to equilibrate for 30 minutes followed by addition of europium crypated labeled Streptavidin (2.5 pM final) and APC-labeled anti-His (20 nM final) in 5 μl of HTRF buffer. The reaction was allowed to equilibrate for 30 m and signal (665 nm/620 nm ratio) was obtained using an EnVision fluorometer.
(TR-FRET usually uses a lanthanide donor and a delayed reading to cut background.)
For B1, the IC50 (as a rule, the point on the concentration scale where inhibition reaches its midpoint) lay within 0.3 to 9.9 nM.
In the case of B2, the IC50 was in the range of 0.3 to 9.9 nM.
The same measure, in the same setting: the value for B3 was 0.3 to 9.9 nM; that for B4 was 0.3 to 9.9 nM.
Still for that read-out and setting: the value for B5 was 0.3 to 9.9 nM; that for B6 was 0.3 to 9.9 nM; that for B7 was 0.3 to 9.9 nM.
Still for that read-out and setting: the value for B8 was 0.3 to 9.9 nM.
Turning to B9, the IC50 lay in the range of 0.3 to 9.9 nM.
The same measure, in the same setting: the value for B10 was 0.3 to 9.9 nM; that for B11 was 0.3 to 9.9 nM.
Consider B12, for which the IC50 was in the range of 0.3 to 9.9 nM.
As to B13, the IC50 fell in the range of 0.3 to 9.9 nM.

In a further experiment the target is T1, Recombinant Human PD-L1-TVMV-His. In words: HTRF vs PD-1-Ig; B = IC50 0.01-0.099 µM. The procedure: as §1
B14: the IC50 was in the range of 10 to 99 nM.
Still for that read-out and setting: the value for B15 was 10 to 99 nM; that for B16 was 10 to 99 nM.
On the same count and under the same terms, the value for B17 was 10 to 99 nM; that for B18 was 10 to 99 nM; that for B19 was 10 to 99 nM.
On the same count and under the same terms, the value for B20 was 10 to 99 nM; that for B21 was 10 to 99 nM.
On to B22, for which the IC50 fell in the range of 10 to 99 nM.
Same read-out and setting: the value for B23 was 10 to 99 nM.
Turning to B24, the IC50 was 10 to 99 nM.
In the case of B25, the IC50 lay in the range of 10 to 99 nM.

The record behind these values is patent publication US20160137696A1 (Bristol-Myers Squibb, published 2016).
